# Results taken from PMC7610691 (Nature structural & molecular biology, 2020).
# T1: Smc2 (S. cerevisiae condensin subunit) (S. cerevisiae, UniProt P38989 1-1170)
# T1 sequence: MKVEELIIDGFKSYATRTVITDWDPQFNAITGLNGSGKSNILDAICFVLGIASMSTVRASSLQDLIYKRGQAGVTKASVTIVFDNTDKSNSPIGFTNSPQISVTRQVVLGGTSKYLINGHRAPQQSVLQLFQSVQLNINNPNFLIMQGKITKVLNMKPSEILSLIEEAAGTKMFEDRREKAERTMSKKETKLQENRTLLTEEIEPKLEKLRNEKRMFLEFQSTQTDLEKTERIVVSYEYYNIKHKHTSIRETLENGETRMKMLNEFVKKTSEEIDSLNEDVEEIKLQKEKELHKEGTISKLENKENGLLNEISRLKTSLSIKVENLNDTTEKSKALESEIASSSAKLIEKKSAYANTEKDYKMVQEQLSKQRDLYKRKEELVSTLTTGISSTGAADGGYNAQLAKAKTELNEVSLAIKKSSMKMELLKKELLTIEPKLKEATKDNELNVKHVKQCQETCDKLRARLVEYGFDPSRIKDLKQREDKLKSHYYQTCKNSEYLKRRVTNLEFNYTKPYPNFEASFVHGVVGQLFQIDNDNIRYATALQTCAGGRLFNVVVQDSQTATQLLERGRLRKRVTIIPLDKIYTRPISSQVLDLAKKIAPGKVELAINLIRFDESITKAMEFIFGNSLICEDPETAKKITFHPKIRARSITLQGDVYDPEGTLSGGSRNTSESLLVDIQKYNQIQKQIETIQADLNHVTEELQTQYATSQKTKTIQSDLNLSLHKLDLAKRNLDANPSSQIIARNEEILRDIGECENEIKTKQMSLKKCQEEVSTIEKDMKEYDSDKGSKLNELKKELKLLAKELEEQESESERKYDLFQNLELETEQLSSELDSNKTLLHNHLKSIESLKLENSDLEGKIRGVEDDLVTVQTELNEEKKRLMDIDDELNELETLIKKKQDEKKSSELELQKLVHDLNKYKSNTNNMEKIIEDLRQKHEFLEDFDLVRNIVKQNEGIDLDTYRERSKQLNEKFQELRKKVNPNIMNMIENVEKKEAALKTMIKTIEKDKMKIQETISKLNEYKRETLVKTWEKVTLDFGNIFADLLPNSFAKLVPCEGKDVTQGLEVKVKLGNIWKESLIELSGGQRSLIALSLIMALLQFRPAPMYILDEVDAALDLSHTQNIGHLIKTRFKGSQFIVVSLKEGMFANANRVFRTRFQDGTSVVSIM
# Target: T1, Smc2 (S. cerevisiae condensin subunit)
# Test: cryo-EM structure
binder,measurement,value
Ycg1 (S. cerevisiae condensin HEAT-repeat subunit) (natural protein) MQDPDGIDINTKIFNSVAEVFQKAQGSYAGHRKHIAVLKKIQSKAVEQGYEDAFNFWFDKLVTKILPLKKNEIIGDRIVKLVAAFIASLERELILAKKQNYKLTNDEEGIFSRFVDQFIRHVLRGVESPDKNVRFRVLQLLAVIMDNIGEIDESLFNLLILSLNKRIYDREPTVRIQAVFCLTKFQDEEQTEHLTELSDNEENFEATRTLVASIQNDPSAEVRRAAMLNLINDNNTRPYILERARDVNIVNRRLVYSRILKSMGRKCFDDIEPHIFDQLIEWGLEDRELSVRNACKRLIAHDWLNALDGDLIELLEKLDVSRSSVCVKAIEALFQSRPDILSKIKFPESIWKDFTVEIAFLFRAIYLYCLDNNITEMLEENFPEASKLSEHLNHYILLRYHHNDISNDSQSHFDYNTLEFIIEQLSIAAERYDYSDEVGRRSMLTVVRNMLALTTLSEPLIKIGIRVMKSLSINEKDFVTMAIEIINDIRDDDIEKQEQEEKIKSKKINRRNETSVDEEDENGTHNDEVNEDEEDDNISSFHSAVENLVQGNGNVSESDIINNLPPEKEASSATIVLCLTRSSYMLELVNTPLTENILIASLMDTLITPAVRNTAPNIRELGVKNLGLCCLLDVKLAIDNMYILGMCVSKGNASLKYIALQVIVDIFSVHGNTVVDGEGKVDSISLHKIFYKVLKNNGLPECQVIAAEGLCKLFLADVFTDDDLFETLVLSYFSPINSSNEALVQAFAFCIPVYCFSHPAHQQRMSRTAADILLRLCVLWDDLQSSVIPEVDREAMLKPNIIFQQLLFWTDPRNLVNQTGSTKKDTVQLTFLIDVLKIYAQIEKKEIKKMIITNINAIFLSSEQDYSTLKELLEYSDDIAENDNLDNVSKNALDKLRNNLNSLIEEINERSETQTKDENNTANDQYSSILGNSFNKSSNDTIEHAADITDGNNTELTKTTVNISAVDNTTEQSNSRKRTRSEAEQIDTSKNLENMSIQDTSTVAKNVSFVLPDEKSDAMSIDEEDKDSESFSEVC,binding result,binds
